Earlier results, collected in patent US6468965B1, “Pharmaceutical composition for oral administration of a mixture of chelating agents” (priority 2002, dated 2002).

Legend:
Porphyromonas gingivalis = details: literature report, J. Biol. Chem. 2000
[1] = tested on: VEGF165-Mediated Angiogenesis; details: orally administered; literature report, Int. J. Cancer 2001
colon 26 carcinoma = details: orally administered; literature report, Nutrition and Cancer 2000

B1: lactoferrin (protein, UniProt P24627 20-708, looked up)
Lactotransferrin: APRKNVRWCTISQPEWFKCRRWQWRMKKLGAPSITCVRRAFALECIRAIAEKKADAVTLDGGMVFEAGRDPYKLRPVAAEIYGTKESPQTHYYAVAVVKKGSNFQLDQLQGRKSCHTGLGRSAGWIIPMGILRPYLSWTESLEPLQGAVAKFFSASCVPCIDRQAYPNLCQLCKGEGENQCACSSREPYFGYSGAFKCLQDGAGDVAFVKETTVFENLPEKADRDQYELLCLNNSRAPVDAFKECHLAQVPSHAVVARSVDGKEDLIWKLLSKAQEKFGKNKSRSFQLFGSPPGQRDLLFKDSALGFLRIPSKVDSALYLGSRYLTTLKNLRETAEEVKARYTRVVWCAVGPEEQKKCQQWSQQSGQNVTCATASTTDDCIVLVLKGEADALNLDGGYIYTAGKCGLVPVLAENRKSSKHSSLDCVLRPTEGYLAVAVVKKANEGLTWNSLKDKKSCHTAVDRTAGWNIPMGLIVNQTGSCAFDEFFSQSCAPGADPKSRLCALCAGDDQGLDKCVPNSKEKYYGYTGAFRCLAEDVGDVAFVKNDTVWENTNGESTADWAKNLNREDFRLLCLDGTRKPVTEAQSCHLAVAPNHAVVSRSDRAAHVKQVLLHQQALFGKNGKNCPDKFCLFKSETKNLLFNDNTECLAKLGGRPTYEEYLGTEYVTAIANLKKCSTSPLLEACAFLTR
notes: 80 kDa mammalian iron-chelating glycoprotein obtainable from the whey protein of cow's milk
action on growth of the bacteria responsible for gingivitis (Porphyromonas gingivalis): inhibiting action
effect on angiogenesis [1]: inhibiting angiogenesis
effect on the lung colonization of colon 26 carcinoma (colon 26 carcinoma): significant inhibiting effect
